Paper PMC8293591, “Vibrio vulnificus induces the death of a major bacterial species in the mouse gut via cyclo-Phe-Pro” (Microbiome, 2021)

What was measured:
ObgE (rObgE) = target: T1, ObgE (rObgE) (Phocaeicola vulgatus, UniProt A6L100); test: isothermal titration calorimetry; type: binding
T1 construct: gene obg; 45 kDa; nucleotide-free (alkaline phosphatase, gel filtration)
T1 sequence (A6L100 1-394): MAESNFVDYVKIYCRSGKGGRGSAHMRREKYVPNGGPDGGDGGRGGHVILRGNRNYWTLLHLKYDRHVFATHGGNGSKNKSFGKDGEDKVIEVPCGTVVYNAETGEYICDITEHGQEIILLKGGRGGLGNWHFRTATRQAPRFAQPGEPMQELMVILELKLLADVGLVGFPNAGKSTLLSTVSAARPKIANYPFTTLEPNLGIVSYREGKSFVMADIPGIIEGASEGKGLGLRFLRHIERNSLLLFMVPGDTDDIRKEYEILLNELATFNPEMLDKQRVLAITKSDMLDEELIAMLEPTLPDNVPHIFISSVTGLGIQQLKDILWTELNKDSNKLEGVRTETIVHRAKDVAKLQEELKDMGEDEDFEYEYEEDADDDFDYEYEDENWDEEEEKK

[1] = target: recombinant ObgE of Bacteroides vulgatus MGM001, nucleotide-free (Bacteroides vulgatus MGM001); test: ITC; MicroCal iTC200; nucleotide-free rObgE (40 μM) titrated with 400 μM cyclic dipeptide at 25 °C in 20 mM HEPES (pH 7.5), 150 mM NaCl, 5 mM MgCl2, 1 mM β-mercaptoethanol; single binding site model

Compound | Kd (ObgE (rObgE)) [nM] | Kd [1] [nM] | stoichiometry N [1]
O=C1N[C@@H](Cc2ccccc2)C(=O)N2CCC[C@@H]12 [cFP] | 1800 ± 350 |  | 
cyclo-(phenylalanine-proline) (peptide) |  | 1800 | 0.78
